In the data set the test system is LITAF + STAT6(B) complex (Homo sapiens). The experiment in a line: cell_activity. Particulars: TNF promoter-luciferase in U2OS cells; inhibited by LITAF shRNA.
LITAF + STAT6(B) complex (Homo sapiens), sequence (chain, as listed by the source, chain 1 of 2): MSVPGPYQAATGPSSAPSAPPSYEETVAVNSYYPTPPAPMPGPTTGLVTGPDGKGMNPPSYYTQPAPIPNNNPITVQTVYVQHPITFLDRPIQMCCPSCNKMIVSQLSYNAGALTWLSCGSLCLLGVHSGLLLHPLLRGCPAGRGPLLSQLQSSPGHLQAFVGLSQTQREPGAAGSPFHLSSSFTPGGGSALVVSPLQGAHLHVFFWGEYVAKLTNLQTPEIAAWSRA
LITAF + STAT6(B) complex (Homo sapiens), sequence (chain, as listed by the source, chain 2 of 2): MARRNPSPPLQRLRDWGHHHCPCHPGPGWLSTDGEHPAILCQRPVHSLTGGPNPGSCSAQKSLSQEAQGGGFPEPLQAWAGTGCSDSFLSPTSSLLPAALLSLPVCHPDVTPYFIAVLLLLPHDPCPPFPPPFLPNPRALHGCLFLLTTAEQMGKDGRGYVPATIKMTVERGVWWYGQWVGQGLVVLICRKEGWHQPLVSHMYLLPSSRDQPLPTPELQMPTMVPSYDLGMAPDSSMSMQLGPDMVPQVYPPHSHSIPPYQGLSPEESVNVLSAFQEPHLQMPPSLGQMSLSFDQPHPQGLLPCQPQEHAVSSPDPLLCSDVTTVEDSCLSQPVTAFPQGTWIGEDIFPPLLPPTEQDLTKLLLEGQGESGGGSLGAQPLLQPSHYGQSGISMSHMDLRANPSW

For hTNF-alpha promoter DNA probe, the activity (fold vs LITAF alone) came to 1.5.

The values above are taken from patent US20090062190.
